Where a SMILES comes first, the peptide text is derived from it. Bridges are numbered along the chain shown (N, C = ends). Primed or numbered codes have the meaning given here. Where no end group is shown, it is not given here. [ ]: non-standard residue; d: D form. PEG3′ = polyethylene glycol such as aminoethyloxy-ethyloxy-acetic acid (AeeA), and polymers thereof
Key:
intestinal GC-C receptor = target: T1, intestinal GC-C receptor (Homo sapiens, UniProt P25092); experiment: Cyclic GMP stimulation assay in T84 cells; format: cell-based; details: for potency to stimulate cGMP synthesis in T84 cells relative to SP-333: peggylated analogs of SP-333, 30 min (FIG. 8); for potency in cGMP stimulation assay relative to SP-339 (linaclotide): 30 min exposure (FIG. 6); for ability to stimulate cGMP synthesis in T84 cells relative to SP-304: 30 min exposure (FIG. 5)
T1 construct: confluent monolayers of T-84 cells in 24-well plates; host or cells: T84 human colon carcinoma cells
T1 sequence (P25092 24-1073): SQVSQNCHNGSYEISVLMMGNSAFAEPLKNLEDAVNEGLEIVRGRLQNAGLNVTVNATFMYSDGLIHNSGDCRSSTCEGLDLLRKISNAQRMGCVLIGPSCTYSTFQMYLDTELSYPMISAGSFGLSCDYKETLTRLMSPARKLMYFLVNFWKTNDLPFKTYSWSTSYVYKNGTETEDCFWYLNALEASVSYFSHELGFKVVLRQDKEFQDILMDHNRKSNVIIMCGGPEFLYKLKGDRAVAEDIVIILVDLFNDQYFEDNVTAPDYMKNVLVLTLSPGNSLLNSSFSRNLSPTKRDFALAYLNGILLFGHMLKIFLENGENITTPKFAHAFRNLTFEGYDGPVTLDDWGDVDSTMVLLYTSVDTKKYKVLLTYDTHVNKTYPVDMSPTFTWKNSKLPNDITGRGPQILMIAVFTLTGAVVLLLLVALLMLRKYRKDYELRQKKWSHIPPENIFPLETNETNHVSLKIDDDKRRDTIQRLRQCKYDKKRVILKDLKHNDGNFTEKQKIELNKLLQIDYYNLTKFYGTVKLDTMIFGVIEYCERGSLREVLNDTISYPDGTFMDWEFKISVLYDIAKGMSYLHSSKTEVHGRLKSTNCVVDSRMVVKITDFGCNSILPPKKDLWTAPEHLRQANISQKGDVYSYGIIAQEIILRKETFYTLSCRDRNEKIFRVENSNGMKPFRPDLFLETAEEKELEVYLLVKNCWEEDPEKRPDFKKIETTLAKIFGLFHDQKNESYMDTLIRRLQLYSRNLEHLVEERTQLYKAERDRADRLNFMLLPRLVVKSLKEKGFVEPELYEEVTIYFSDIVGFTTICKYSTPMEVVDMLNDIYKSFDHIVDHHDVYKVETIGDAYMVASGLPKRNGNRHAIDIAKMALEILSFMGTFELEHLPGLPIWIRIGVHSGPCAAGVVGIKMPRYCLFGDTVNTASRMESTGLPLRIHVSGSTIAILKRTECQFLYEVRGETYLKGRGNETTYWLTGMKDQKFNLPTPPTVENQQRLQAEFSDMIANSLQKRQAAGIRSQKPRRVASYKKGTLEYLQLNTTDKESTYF
Source text: FIG. 4: Biological activity of truncated peptides of 16-mer SP-304, as measured by stimulation of cGMP synthesis in T84 cells. SP-338 15-mer peptide is indentical to SP-304 except that it lacks Leu at the C-terminus. SP-327, SP-329 and SP-331 lack Leu at their C-termini relative to their corresponding parents, SP-326, SP-328 and SP-330, respectively. Data points shown are the average of duplicate measurements.
FIG. 5: Stimulation of cGMP synthesis in T84 cells by SP-304 and similar analogs. T84 cells were exposed to test peptides for 30 min and cell lysates were then used to determine intracellular cGMP levels. Data points shown are the average of triplicate measurements±SD.
FIG. 6: Stimulation of cGMP synthesis in T84 cells by SP-339 (linaclotide) and other linaclotide analogs. T84 cells were exposed to test peptides for 30 min and cell lysates were then used to determine intracellular cGMP levels. Data points shown are the average of triplicate measurements±SD.
FIG. 8: Stimulation of cGMP synthesis in T84 cells by the peggylated analogs of SP-333. T84 cells were exposed to the indicated peptides for 30 min and cell lysates were used to determine intracellular cGMP levels. Data points shown are the average of triplicate measurements±SD.
After the 30 min incubation, the medium was aspirated and the reaction was terminated by the addition of 3% perchloric acid. Following centrifugation and the addition of NaOH (0.1 N) to neutralize the pH, intracellular cGMP levels were determined in lysates using a cGMP ELISA kit (Cat. No. 581021; Cayman Chemical, Ann Arbor, Mich.). Peptide incubations were run in duplicate, and samples taken from each incubation were run as duplicates in the ELISA test.
The ability of the GCC agonist peptide to bind to and activate the intestinal GC-C receptor was tested using T84 human colon carcinoma cell line. Human T84 colon carcinoma cells were obtained from the American Type Culture Collection. Cells were grown in a 1:1 mixture of Ham's F-12 medium and Dulbecco's modified Eagle's medium (DMEM) supplemented with 10% fetal bovine serum, 100 U penicillin/ml, and 100 μg/ml streptomycin. The cells were fed fresh medium every third day and split at a confluence of approximately 80%.
Biological activity of the GCC agonist peptides was assayed as previously reported (Shailubhai, et al., Cancer Research 60, 5151-5157 (2000)). Briefly, the confluent monolayers of T-84 cells in 24-well plates were washed twice with 250 μl of DMEM containing 50 mM HEPES (pH 7.4), pre-incubated at 37° C. for 10 min with 250 μl of DMEM containing 50 mM HEPES (pH 7.4) and 1 mM isobutylmethylxanthine (IBMX), followed by incubation with GCC agonist peptides (0.1 nM to 10 µM) for 30 min. The medium was aspirated, and the reaction was terminated by the addition of 3% perchloric acid. Following centrifugation, and neutralization with 0.1 N NaOH, the supernatant was used directly for measurements of cGMP using an ELISA kit (Caymen Chemical, Ann Arbor, Mich.).
An additional strategy to render peptides more resistant towards digestion by digestive proteases is to peggylate them at the N- and C-terminus. The peptide SP-333 was peggylated with the aminoethyloxy-ethyloxy-acetic acid (Aeea) group at the C-terminus (SP-347) or at the N-terminus (SP-350) or at both termini (SP-343). Cyclic GMP synthesis in T84 cells was measured by the method as described above.

[1] = Stability in simulated intestinal fluid (SIF), biological activity by cGMP synthesis in T84 cells; format: in vitro ADME
Method: FIG. 2A: Biological activity of SP-304 incubated for varying lengths of time in simulated intestinal fluid (SIF). SP-304 samples were incubated for 0, 30, 60, 90, 150, and 300 min, respectively, and then tested for their ability to stimulate cGMP synthesis in T84 cells. The cGMP stimulation activity in the sample at 0 min of incubation time in SIF was taken as 100% biological activity. The activities of the other SP-304 incubation samples were calculated as the percentage of activity relative to that of the 0 min sample. Data points shown are the average of triplicate measurements±SD.
(§1) FIG. 7A: Biological activity of SP-333 incubated for varying lengths of time in simulated intestinal fluid (SIF). SP-333 samples incubated for 0, 5, 10, 30, 60, and 120 min, respectively, were tested for their ability to stimulate cGMP synthesis in T84 cells. The control sample marked as C120 was produced by incubating SP-333 with heat inactivated SIF for 120 min. Samples from the incubations were removed and heated at 95° C. for 5 min to inactivate digestive enzymes and then used to stimulate cyclic GMP synthesis in T84 cells. The cGMP stimulation activity in the sample at 0 min of incubation time in SIF was taken as 100% biological activity. The activities of the other SP-304 incubation samples were calculated as the percentage of activity relative to that of the 0 min sample. Data points shown are the average of triplicate measurements±SD.
as §1, with “FIG. 7B:” for “FIG. 7A:”, “of SP-332” for “of SP-333”, “incubating SP-332” for “incubating SP-333”
FIG. 7C: Biological activity of SP-304 incubated for varying lengths of time in simulated intestinal fluid (SIF). SP-304 samples incubated for 0, 10, and 60 min, respectively, were tested for their ability to stimulate cGMP synthesis in T84 cells. The control samples marked as C0 and C60 were produced by incubating SP-304 with heat inactivated SIF for 0 and 60 min, respectively. Samples from the incubations were removed and heated at 95° C. for 5 min to inactivate digestive enzymes and then used to stimulate cyclic GMP synthesis in T84 cells. The cGMP stimulation activity in the sample at 0 min of incubation time in SIF was taken as 100% biological activity. The activities of the other SP-304 incubation samples were calculated as the percentage of activity relative to that of the 0 min sample. […]
FIGS. 7G-1-7G-5: Incubation of SP-333 with SIF for 2, 6, 12 and 24 hrs. Effect of SIF digestion on the activity of SP-333 in T84 stimulation assay was determined (FIG. 7G-1) and samples were also analyzed by HPLC (FIGS. 7G2-5). […]
The stability of SP-304 was also evaluated after incubation with simulated intestinal fluid (SIF) by measuring its biological activity and by HPLC analyses (FIGS. 2A & 2B). […]

PEG3-dAsn^1-Asp^2-Glu^3-Cys^4-Glu^5-Leu^6-Cys^7-Val^8-Asn^9-Val^10-Ala^11-Cys^12-Thr^13-Gly^14-Cys^15-dLeu^16 ([PEG3′][dN]DECELCVNVACTGC[dL]; ends and bridges not checked) [SP-350]
potency to stimulate cGMP synthesis in T84 cells relative to SP-333 (intestinal GC-C receptor): comparable to SP-333

Asn^1-Phe^2-Cys^3-Cys^4-Glu^5-Ser^6-Cys^7-Cys^8-Asn^9-Pro^10-Ala^11-Cys^12-Thr^13-Gly^14-Cys^15-Tyr^16 (NFCCESCCNPACTGCY; disulfide 4-12, 7-15, 3-8) [SP-353]
potency in cGMP stimulation assay relative to SP-339 (linaclotide) (intestinal GC-C receptor): more potent than SP-339

Asn^1-Asp^2-Glu^3-Cys^4-Glu^5-Leu^6-Cys^7-Val^8-Asn^9-Val^10-Ala^11-Cys^12-Thr^13-Gly^14-Cys^15 (NDECELCVNVACTGC) [SP-338]
biological activity retained relative to full length 16-mer SP-304 (cGMP synthesis in T84 cells) (intestinal GC-C receptor; peptide 1.0 μM, 30 min (FIG. 4)): about 80%

Asn^1-Phe^2-Cys^3-Cys^4-Glu^5-Phe^6-Cys^7-Cys^8-Asn^9-Pro^10-Ala^11-Cys^12-Thr^13-Gly^14-Cys^15-Tyr^16 (NFCCEFCCNPACTGCY; disulfide 4-12, 7-15, 3-8) [SP-354]
potency in cGMP stimulation assay relative to SP-339 (linaclotide) (intestinal GC-C receptor): virtually identical to SP-339

CC(C)C[C@@H]1NC(=O)[C@H](CCC(=O)O)NC(=O)[C@@H](NC(=O)[C@H](CCC(=O)O)NC(=O)[C@H](CC(=O)O)NC(=O)[C@@H](N)CC(N)=O)CSSC[C@@H]2NC(=O)[C@H](C)NC(=O)[C@H](C(C)C)NC(=O)[C@H](CC(N)=O)NC(=O)[C@H](C(C)C)NC(=O)[C@H](CSSC[C@@H](C(=O)N[C@H](CC(C)C)C(=O)O)NC(=O)CNC(=O)[C@H]([C@@H](C)O)NC2=O)NC1=O [SP-332, Asn^1-Asp^2-Glu^3-Cys^4-Glu^5-Leu^6-Cys^7-Val^8-Asn^9-Val^10-Ala^11-Cys^12-Thr^13-Gly^14-Cys^15-dLeu^16] (H-NDECELCVNVACTGC[dL]-OH; disulfide 4-12, 7-15)
potency following incubation with SIF [1]: minor reduction in potency

dAsn^1-Asp^2-Glu^3-Cys^4-Glu^5-dLeu^6-Cys^7-Val^8-Asn^9-Val^10-Ala^11-Cys^12-Thr^13-Gly^14-Cys^15-dLeu^16 ([dN]DECE[dL]CVNVACTGC[dL]; ends and bridges not checked) [SP-337]
ability to stimulate cGMP synthesis in T84 cells relative to SP-304 (intestinal GC-C receptor): virtually complete loss of biological activity

Cys^1-Cys^2-Glu^3-Tyr^4-Cys^5-Cys^6-Asn^7-Pro^8-Ala^9-Cys^10-Thr^11-Gly^12-Cys^13-dTyr^14 [SP-355]
potency in cGMP stimulation assay relative to SP-339 (linaclotide) (intestinal GC-C receptor): considerably less potency

dAsn^1-Asp^2-Glu^3-Cys^4-Glu^5-Leu^6-Cys^7-Val^8-Asn^9-Val^10-Ala^11-Cys^12-Thr^13-Gly^14-Cys^15-dLeu^16-PEG3 ([dN]DECELCVNVACTGC[dL][PEG3′]; ends and bridges not checked) [SP-347]
potency to stimulate cGMP synthesis in T84 cells relative to SP-333 (intestinal GC-C receptor): comparable to SP-333

PEG3-dAsn^1-Asp^2-Glu^3-Cys^4-Glu^5-Leu^6-Cys^7-Val^8-Asn^9-Val^10-Ala^11-Cys^12-Thr^13-Gly^14-Cys^15-dLeu^16-PEG3 ([PEG3′][dN]DECELCVNVACTGC[dL][PEG3′]; ends and bridges not checked) [SP-343]
potency to stimulate cGMP synthesis in T84 cells relative to SP-333 (intestinal GC-C receptor): considerably less potent

dAsn^1-dAsp^2-dGlu^3-Cys^4-Glu^5-Leu^6-Cys^7-Val^8-Asn^9-Val^10-Ala^11-Cys^12-Thr^13-Gly^14-Cys^15-dLeu^16 ([dN][dD][dE]CELCVNVACTGC[dL]; disulfide (positions not given here); also: disulfides, number and pairing not given here) [SP-335]
ability to stimulate cGMP synthesis in T84 cells relative to SP-304 (intestinal GC-C receptor): comparable ability
